Experiments:
[1] = target: cynomolgus monkey IL-13 (NHP IL-13), recombinant (cynomolgus monkey); test: cell-based or functional assay
[2] = target: native human IL-13 (crude preparation from activated human cord blood Th2 cells) (human) (UniProt P35225); test: cell-based or functional assay
native human IL-13 (crude preparation from activated human cord blood Th2 cells) (human), sequence (P35225 other isoform, or with tags, fused parts or gaps, form in doubt): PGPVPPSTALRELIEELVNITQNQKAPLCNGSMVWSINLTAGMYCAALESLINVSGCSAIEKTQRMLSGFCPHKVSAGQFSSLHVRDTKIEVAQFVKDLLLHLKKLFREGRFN

cynomolgus monkey IL-13 (NHP IL-13), recombinant (cynomolgus monkey), sequence (Q5I6E4 other isoform, or with tags, fused parts or gaps): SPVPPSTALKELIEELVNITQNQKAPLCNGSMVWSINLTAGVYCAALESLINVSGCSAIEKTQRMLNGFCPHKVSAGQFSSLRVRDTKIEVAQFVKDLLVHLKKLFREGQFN

IC50, CD23 expression assay [1]: 0.308 nM
IC50, STAT6 phosphorylation assay [2]: 0.554 nM
B1: antibody with the murine heavy chain of MJ2-7 and a humanized light chain (antibody, part only; not given: humanized light chain, V domains shown, part only)
VH: EVQLQQSGAELVKPGASVKLSCTGSGFNIKDTYIHWVKQRPEQGLEWIGRIDPANDNIKYDPKFQGKATITADTSSNTAYLQLNSLTSEDTAVYYCARSEENWYDFFDYWGQGTTLTVSS

From US20060073148A1
